Test results: the supplement of paper PMC9732359
± gives the uncertainty stated by the source.

Assay: protein stability index of a GFP-peptide fusion (yeast GPS) (PSI 1-4); higher = more stable; sorted into four equal gates, so the index is relative within each strain
Conditions: pdr5∆
Procedure, shortened: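 Plasmids in a pooled yeast library fused tiled 17-residue yeast protein peptides downstream of GFP and also expressed Cherry. Mid-log cultures grown without leucine were sorted into four equal gates by GFP/Cherry fluorescence ratio. Each gate's plasmids were PCR-amplified and Illumina-sequenced, and reads were matched to strains by barcodes. The protein stability index is derived by multiplying each gate's read frequency by its gate number and summing the results.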

| Sequence | protein stability index |
| --- | --- |
| HIPICVTFSFFNPQDTE [RRP45] | 1.61 ± 0.06 |
| HIQGFPTLGERLDNLQD [DSN1] | 3.39 ± 0.11 |
| HKKIKVAQPDSLRETNT [SIR2] | 3.25 ± 0.11 |
| HKQIHTTIFVKSTTPYV [POP7] | 2.31 ± 0.05 |
| HKTFLVANVKDLETLTM [RPL32] | 3.39 ± 0.26 |

Same assay, conditions: san1∆

| Sequence | protein stability index |
| --- | --- |
| GILDEIMFNHARIIRSE [RGR1] | 3.08 ± 0.069 |
| GILGNKAQAKMDKRAKT [RPL8B] | 3.4 ± 0.058 |
| GINKIPPKPRKVLQLLR [RPL7A] | 3.22 ± 0.061 |
| GINKKKLLAISKFNNAD [RPC31] | 2.97 ± 0.23 |
| GIRWELISRLCPNSTGA [RPT1] | 2.12 ± 0.076 |
| GIVDELAYAVLGIALIA [RPN1] | 1.48 ± 0.16 |
| GKAATAKETHTKPSETP [YOR098C/NUP1] | 2.76 ± 0.077 |
| GKASLFAQGKRRYDRKQ [RPL42A] | 3.4 ± 0.088 |
| GKEHIVAALVSLTEKFS [ECM29] | 1.58 ± 0.084 |
| GKGIKLSIAEERDRRRA [RPS4A] | 3.35 ± 0.072 |
| GKHLSYQRSKRVNNPNV [RPL33A] | 2.01 ± 0.069 |
| GKIEKIAQSKKKNNKIK [SRP21] | 3.01 ± 0.066 |
| GKKKSATAVAHVKAGKG [RPS16A] | 2.49 ± 0.11 |
| GKKVLNKNQLLKRNRIR [POP1] | 2.94 ± 0.064 |
| GKPSFVFGASDKQAEGT [YOR098C/NUP1] | 3.07 ± 0.12 |
| GKRQVLLRPSSKVIIKF [RPS22B] | 3.25 ± 0.057 |
| GKTGLSNMILGSVELST [YML103C/NUP188] | 2.34 ± 0.069 |
| GKTLAFVIPILIKMSRS [PRP28] | 1.22 ± 0.19 |
| GKTYMGWWGHMGGPKQK [QCR8] | 1.63 ± 0.19 |
| GKVRLWKATYSNEFKCM [YGL100W/SEH1] | 1.78 ± 0.048 |
| GLAVGLALINYGRQELA [RPN2] | 1.58 ± 0.24 |
| GLESLLNIGLGAVGLKD [YCS4] | 2.89 ± 0.13 |
| GLIPYPHHNQSPRNTYQ [RET1] | 2.83 ± 0.069 |
| GLIYSFNEENGEDSTKP [POP1] | 2.86 ± 0.26 |

| Sequence | protein stability index |
| --- | --- |
| GLMSANNIIAEGIEKMG [FAS2] | 1.58 ± 0.18 |
| GLQNVRKVRTKKWKKYW [SWP82] | 3.26 ± 0.25 |
| GLRNQNMVRNNNNNTID [GRR1] | 2.83 ± 0.057 |
| GLSAREAVKQAAKIIYL [PRE10] | 2.59 ± 0.1 |
| GLTSRLQRQQRKSKLNL [POP4] | 3.09 ± 0.063 |
| GLVKQHLDSFNYFVDTD [RET1] | 2.97 ± 0.11 |
| GNAKESKALLREISNFS [SRP72] | 2.7 ± 0.14 |
| GNIDTKNNILGSNVLKS [RRP43] | 2.92 ± 0.032 |
| GNISSSTVKKKDIVNIS [REC8] | 2.88 ± 0.044 |
| GNSEAIPGLSAGVNNDN [RTT102] | 3.39 ± 0.069 |
| GNSFHLMRELLKMMKLI [PRP8] | 2.6 ± 0.065 |
| GPENALNVYHYFGENSS [YJL039C/NUP192] | 2.06 ± 0.053 |
| GPRAVLTRQPTEGRSRD [RET1] | 3.1 ± 0.067 |
| GPSAMRLSRCIRDNKLV [RPC82] | 1.58 ± 0.15 |
| GQLEDFDSELIHLKQKL [SMC3] | 3.23 ± 0.15 |
| GQLISLLFEDLFKKFNN [RET1] | 3.34 ± 0.15 |
| GQVVLTPLTFALPRGAR [RPL14A] | 1.18 ± 0.11 |
| GRFLRVPKEGLFYFDSS [BRR2] | 3.3 ± 0.081 |
| GRIRTTREDVSPHYNSQ [SSN3] | 1.89 ± 0.07 |
| GRNLGRIGTIVHKERHD [RPS4A] | 2.5 ± 0.059 |
| GRRLSMLASQANGGSTI [DSN1] | 2.42 ± 0.071 |
| GRTGNGNMGITTEMLDK [MED6] | 3.28 ± 0.047 |
| GRVYRPLFIVEDDESLG [RPB2] | 1.59 ± 0.1 |
| GSAATSGFEFSKEDTLR [RPN1] | 2.72 ± 0.15 |

| Sequence | protein stability index |
| --- | --- |
| GSAITGPVGKECADLWP [RPL23A] | 2.83 ± 0.067 |
| GSARTRWEMEAFGEFSL [FAS2] | 2.93 ± 0.098 |
| GSKSASKQTPQPKAPRA [ISW2] | 2.76 ± 0.1 |
| GSLARAGKVKSQTPKVE [RPS30A] | 2.69 ± 0.058 |
| GSNYNPYFPGGSIAMAR [CYT1] | 2.59 ± 0.093 |
| GSPKSATSKTSEMLAKY [CDC53] | 1.83 ± 0.1 |
| GSPQMLANEERLSNEMH [RGR1] | 3.39 ± 0.051 |
| GSTTIEKKNDENSTSNS [YLR335W/NUP2] | 3.18 ± 0.06 |
| GSVMSASVEIVFHDPDH [SMC3] | 2.4 ± 0.084 |
| GSYNAFEPASRLQGIKL [COR1] | 3.15 ± 0.063 |
| GTGKSQSGSNSGNNSKK [ROX3] | 2.77 ± 0.2 |
| GTHNMYKEIRDVSRVAA [RPL20A] | 2.03 ± 0.1 |
| GTKSNEKKDSGSSKPAF [YJL041W/NSP1] | 3.42 ± 0.046 |
| GTNPLSSDGAYTEQFQH [SSN2] | 2.96 ± 0.055 |
| GTPKTDSFIFDGTAKEV [MED4] | 2.58 ± 0.071 |
| GTPPMLHQRTHKQVYPL [DSN1] | 2.77 ± 0.071 |
| GVEEVEGEYELTEAVED [RPL5] | 3.24 ± 0.14 |
| GVERLIPVGDNTVVGIS [PRE4] | 2.84 ± 0.064 |
| GVILMFAAILVLLVLPF [COB] | 1.25 ± 0.065 |
| GVSISVSFNSKQNEQLH [SMC3] | 2.7 ± 0.13 |
| GVSRQIAASAFLSLLNL [REC8] | 1.17 ± 0.14 |
| GWDSLASRNVWSFYNGN [SNU114] | 3.48 ± 0.05 |
| GWWGHMGGPKQKGITSY [QCR8] | 1.41 ± 0.14 |
| GYDKKKNKPELYQIDYL [PRE1] | 3.02 ± 0.066 |

| Sequence | protein stability index |
| --- | --- |
| GYKSTVKSLRQGKSKLI [RPL30] | 1.4 ± 0.2 |
| GYVIKVFNNGIVVLVPK [DIS3] | 2.39 ± 0.077 |
| HASENISLSFSRPASYG [SIR4] | 2.74 ± 0.049 |
| HAYNITFNNQDKGLLPY [RPO31] | 1.76 ± 0.098 |
| HDIAYSKDGLPNKVKTE [RRP6] | 2.85 ± 0.18 |
| HDTLNNEIANSIIQSKQ [BRR2] | 2.88 ± 0.058 |
| HECRLRDMTYSAPIYVD [RET1] | 2.01 ± 0.21 |
| HENYIQDDDFPLDDAGT [MCD1] | 2.99 ± 0.041 |
| HEVQYQESSSTLSTHST [SIN4] | 2.87 ± 0.041 |
| HFAWLPTHIWNAKRSHM [POP1] | 1.45 ± 0.059 |
| HFFQIDGFNKTFHDELN [YML103C/NUP188] | 2.67 ± 0.14 |
| HFRAPSRILYKAIRGMV [RPL16B] | 2.14 ± 0.1 |
| HGKASRQQYYSGVQVGG [SNF6] | 2.61 ± 0.052 |
| HGVSFKKRAPRAVKEIK [RPL31A] | 2.97 ± 0.17 |
| HHWLLDKLSGCYAPRPS [RPS4A] | 1.89 ± 0.083 |
| HHYNPKTKKLNLSAFKI [BRR2] | 2.4 ± 0.055 |
| HIHDLEKFSPKSFISKL [SRP54] | 2.14 ± 0.064 |
| HIHKHVKDEAFDDLLKP [RET1] | 3.25 ± 0.073 |
| HIKEASEEVDDLSMVPK [SNF2] | 3.13 ± 0.1 |
| HIPICVTFSFFNPQDTE [RRP45] | 1.28 ± 0.1 |
| HIQGFPTLGERLDNLQD [DSN1] | 3.16 ± 0.046 |
